T1: fluorescent labeled elastin protein (5-Fam-QXL520 labeled-elastin), P15502
T1 chain: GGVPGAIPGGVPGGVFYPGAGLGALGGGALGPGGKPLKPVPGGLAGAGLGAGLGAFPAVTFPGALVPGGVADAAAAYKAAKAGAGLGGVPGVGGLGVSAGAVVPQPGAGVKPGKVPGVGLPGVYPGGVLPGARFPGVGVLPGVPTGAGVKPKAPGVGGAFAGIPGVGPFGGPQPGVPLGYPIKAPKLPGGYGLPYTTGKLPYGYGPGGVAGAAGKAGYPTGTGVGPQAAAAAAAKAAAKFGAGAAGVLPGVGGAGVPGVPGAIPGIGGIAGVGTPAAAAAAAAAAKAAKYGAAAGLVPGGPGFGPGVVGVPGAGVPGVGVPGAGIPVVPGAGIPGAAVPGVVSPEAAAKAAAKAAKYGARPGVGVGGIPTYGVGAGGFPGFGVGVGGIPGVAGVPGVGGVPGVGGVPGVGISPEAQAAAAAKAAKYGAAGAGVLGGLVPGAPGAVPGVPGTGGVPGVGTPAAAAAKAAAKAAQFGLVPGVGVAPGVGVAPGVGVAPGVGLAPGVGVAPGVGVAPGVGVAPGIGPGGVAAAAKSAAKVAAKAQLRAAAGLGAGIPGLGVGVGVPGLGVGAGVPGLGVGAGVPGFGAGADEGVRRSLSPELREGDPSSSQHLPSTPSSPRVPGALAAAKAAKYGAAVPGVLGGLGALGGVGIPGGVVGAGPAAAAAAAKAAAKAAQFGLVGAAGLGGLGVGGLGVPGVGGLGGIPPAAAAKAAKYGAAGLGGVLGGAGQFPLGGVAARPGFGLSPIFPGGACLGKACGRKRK

T2: FluHSA2 fluorogenic peptide
T2 chain: TKCATESAVNRRPCFSALK


Experiments:
[1] = molecular target: T1, fluorescent labeled elastin protein …
[2] = molecular target: T2, FluHSA2 fluorogenic peptide

Protein | degradation of 5-Fam-QXL520 labeled elastin (fluorescence), native Asp f2 on 5D7A1-bound beads [1] | cleavage of FluHSA2 (10 uM, 16 hours at 22 C; fluorescence), native Asp f2 on anti-Asp f2-immobilized beads [2] | cleavage of FluHSA2 (fluorescence, Ex 485 nm/Em 535 nm), Asp f2 captured on 5D7A1-bound beads [2] | degradation of FITC conjugated collagen (15 ug/mL; fluorescence), native Asp f2 on 5D7A1-bound beads (FITC conjugated collagen)
native Asp f2 (glycosylated form) of Aspergillus fumigatus (protein) ATPHEPVFFSWDAGAVTSFPIHSSCNATQRRQIEAGLNEAVELARHAKAHILRWGNESEIYRKYFGNRPTMEAVGAYDVIVNGDKANVLFRCDNPDGNCALEGWGGHWRGANATSETVICDRSYTTRRWLVSMCSQGYTVAGSETNTFWASDLMHRLYHVPAVGQGWVDHFADGYDEVIALAKSNGTESTHDSEALQYFALEAYAFDIAAPGVGCAGESHGPDQGHDTGSASAPASTSTSSSSSGSGSGATTTPTDSPSATIDVPSNCHTHEGGQLHCT | native Asp f2 is also capable of degrading the human proteins collagen and elastin | FluHSA2 was found to exhibit high specificity for cleavage by Asp f2 compared with Asp f3 | both native and recombinant Asp f2 cleave the FluHSA2 substrate | native Asp f2 is also capable of degrading the human proteins collagen and elastin
active recombinant Asp f2 (residues 32-310) (protein) ATPHEPVFFSWDAGAVTSFPIHSSCNATQRRQIEAGLNEAVELARHAKAHILRWGNESEIYRKYFGNRPTMEAVGAYDVIVNGDKANVLFRCDNPDGNCALEGWGGHWRGANATSETVICDRSYTTRRWLVSMCSQGYTVAGSETNTFWASDLMHRLYHVPAVGQGWVDHFADGYDEVIALAKSNGTESTHDSEALQYFALEAYAFDIAAPGVGCAGESHGPDQGHDTGSASAPASTSTSSSSSGSGSGATTTPTDSPSATIDVPSNCHTHEGGQLHCT | – | – | both native and recombinant Asp f2 cleave the FluHSA2 substrate | –
